The target of assay [1] is T1, SakΔN10 (staphylokinase with its first ten residues deleted, C-terminal His6-tag) (Staphylococcus aureus, UniProt Q99SU7).
T1 construct: Staphylokinase contains 136 amino acids and has a molecular weight of 15.5 kDa; made in house; host or cells: E. coli BL21 (DE3), pET29b
T1 sequence (Q99SU7 38-163): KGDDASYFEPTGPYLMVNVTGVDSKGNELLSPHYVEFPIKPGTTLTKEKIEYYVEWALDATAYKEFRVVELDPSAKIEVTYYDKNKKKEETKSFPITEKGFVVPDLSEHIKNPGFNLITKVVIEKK
The experiment in a line: ITC of antimicrobial peptide binding to SakΔN10. The conditions noted are these: 25 °C; for KD / Kd: 200–400 μM peptide titrated into 8 μM SakΔN10, 20 mM HEPES pH 7.4, One Set of Sites model, at least two experiments. The method, then:
(§1) Most peptides were purchased from Genscript (Piscataway, NJ) as custom-synthesized peptides synthesized using standard 9-fluorenylmethyoxycarbonyl (Fmoc) chemistry and they were purified by HPLC to >95% purity. […] The concentrations for most of the peptides were determined by UV absorption at 280 nm using molar extinction coefficients determined by ProtParam[54].
(§2) A synthetic gene for staphylokinase with optimized codons for expression in Escherichia coli was purchased from GeneArt (Life Technologies). Staphylokinase genes have been cloned and sequenced from different origins: the bacteriophages sakφC and sak42D, and the genomic DNA of a lysogenic S. aureus strain (sakSTAR)[56]. These indicate amino acid sequence differences at three positions in the coding sequences. In this study, we have worked with the sakSTAR protein sequence as it is the most commonly used variant. The gene was subcloned into a pET29b (Novagen), giving the expressed protein a C-terminal His6-tag when expressed in E. coli BL21 (DE3) cells.
(§3) All ITC runs were performed at 25 °C on a MicroCal VP-ITC microcalorimeter (Malvern, Westborough, MA). 200–400 μM peptide was titrated into 8 μM SakΔN10 or Sak in 20 mM HEPES, pH 7.4. […] Data analysis was performed using the MicroCal Origin software using the “One Set of Sites” binding model. At least two experiments were performed for each titration. Statistical analysis was performed to confirm the statistical validity of the differences in the KD values determined for LfcinB and Tritrp binding to SakΔN10 or Sak. p-values were calculated from Student’s t-tests at the 95% confidence level with a one-tailed hypothesis.

Assay [2] has as its system Sak-dependent plasminogen activation. The conditions noted are these: mCRAMP expression upregulated during staphylococcal pneumonia, intranasal infection mouse model; cited from earlier work. An excerpt:
In the present study, our aim was to evaluate staphylokinase as a more general interacting partner for antimicrobial peptides of different structures and origin. […] It is possible that additional factors may be involved in promoting its binding in vivo.

In assay [3] the target is T2, staphylokinase (Sak, full-length, sakSTAR sequence, C-terminal His6-tag) (Staphylococcus aureus, UniProt Q99SU7).
T2 construct: Staphylokinase contains 136 amino acids and has a molecular weight of 15.5 kDa; made in house; host or cells: E. coli BL21 (DE3), pET29b, synthetic gene from GeneArt
T2 sequence (Q99SU7 28-163): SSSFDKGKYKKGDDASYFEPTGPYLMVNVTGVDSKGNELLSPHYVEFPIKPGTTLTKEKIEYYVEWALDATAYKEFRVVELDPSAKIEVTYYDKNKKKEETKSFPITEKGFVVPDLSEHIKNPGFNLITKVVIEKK
The experiment in a line: ITC of antimicrobial peptide binding to full-length staphylokinase. The conditions noted are these: 25 °C, 200–400 μM peptide titrated into 8 μM Sak, 20 mM HEPES pH 7.4, One Set of Sites model, at least two experiments. The method, then: as §1, §2, §3

Assay [4] addresses T3, SakΔN10 (staphylokinase with its first ten residues deleted) (Staphylococcus aureus, UniProt P68802 38-163).
T3 construct: not shown: His6, C-terminal, kept
T3 sequence: T1 sequence (Q99SU7 38-163) with S24G
The experiment in a line: ITC; 200-400 μM peptide titrated into 8 μM Sak or SakΔN10 in the cell; 25 °C; 20 mM HEPES, pH 7.4, no salt; One Set of Sites model; at least two experiments each. The conditions noted are these: both partners purified.

Assay [5] concerns the target T4, Staphylokinase (full-length Sak, sakSTAR sequence) (Staphylococcus aureus, UniProt P68802 28-163).
T4 construct: also called wtSak; full Sak; not shown: His6, C-terminal, kept
T4 sequence: T2 sequence (Q99SU7 28-163) with S34G
The assay is described as above. To be noted: both partners purified.

For assay [6], the target named is T3, SakΔN10 (staphylokinase with its first …). Described as above. To be noted: both partners purified. The source holds these as a separate data set.
Assay [7] deals with T4, Staphylokinase (full-length Sak, …). The experiment in a line: ITC + NMR titration; ITC of mCRAMP into full-length Sak repeated at 37 °C, together with the NMR titration data; not shown. The conditions noted are these: both partners purified.
The target is the same in assay [8]. In words: ITC; 200-400 μM peptide titrated into 8 μM Sak or SakΔN10 in the cell; 25 °C; 20 mM HEPES, pH 7.4, no salt; One Set of Sites model; at least two experiments each. The conditions noted are these: both partners purified. This is another data set of the same source. In general terms: Isothermal titration calorimetry measures the heat released or taken up as one component is titrated into another.

The text below walks through data of paper PMC4995489, “Staphylokinase has distinct modes of interaction with antimicrobial peptides, modulating its plasminogen-activation properties” (Scientific Reports, 2016).

Residue numbers refer to the chain shown, from its start. “Also recorded” adds a separate entry of the source. Bridges are numbered along the chain shown (N, C = ends). Where no end group is shown, it is not given here.

By Kd is commonly meant the free concentration of one partner at which half of the binding sites on the other are occupied at equilibrium, for simple one-to-one binding. By stoichiometry N is commonly meant a count of units in the complex or per binding partner.

Consider “GLLRKGGEKIGEKLKKIGQKIKNFFQKLVPQPEQ [mCRAMP, mouse cathelicidin-related antimicrobial peptide, α-helical]”, for which the KD entry in assay [1] is on record as “weak interaction”; in assay [3], “no binding; also recorded: no interaction”. Also, in assay [2], the “augmentation of Sak-dependent plasminogen activation” value is recorded as “two-fold”.

With melittin, the “N (stoichiometry)” value in assay [1] (200–400 μM peptide into 8 μM SakΔN10, 20 mM HEPES pH 7.4, One Set of Sites model) is around 1. The KD result in assay [1] and in assay [3] was “weak interaction” in each case.

Turning to `CC[C@H](C)[C@@H]1NC(=O)[C@H](CO)NC(=O)[C@@H]2CCCN2C(=O)[C@H](C)NC(=O)CNC(=O)[C@H](CC(C)C)NC(=O)[C@H](CCCCN)NC(=O)[C@H](CCCCN)NC(=O)[C@H](CCSC)NC(=O)[C@H](CCCNC(=N)N)NC(=O)[C@H](Cc2c[nH]c3ccccc23)NC(=O)[C@H](CCC(N)=O)NC(=O)[C@H](Cc2c[nH]c3ccccc23)NC(=O)[C@H](CCCNC(=N)N)NC(=O)[C@H](CCCNC(=N)N)NC(=O)[C@@H](NC(=O)[C@H](CCCCN)NC(=O)[C@@H](N)Cc2ccccc2)CSSC[C@@H](C(=O)N[C@H](C(=O)N[C@@H](CCCNC(=N)N)C(=O)N[C@@H](CCCNC(=N)N)C(=O)N[C@@H](C)C(=O)N[C@@H](Cc2ccccc2)C(=O)O)C(C)C)NC(=O)[C@H]([C@@H](C)O)NC1=O` [LfcinB], the Kd amounted to 370 nM in assay [1] and 27.3 µM in assay [3].

For `CC(C)C[C@H](NC(=O)[C@H](Cc1ccccc1)NC(=O)[C@@H]1CCCN1C(=O)[C@H](Cc1c[nH]c2ccccc12)NC(=O)[C@H](Cc1c[nH]c2ccccc12)NC(=O)[C@H](Cc1c[nH]c2ccccc12)NC(=O)[C@@H]1CCCN1C(=O)[C@H](Cc1ccccc1)NC(=O)[C@H](CCCNC(=N)N)NC(=O)[C@H](CCCNC(=N)N)NC(=O)[C@@H](N)C(C)C)C(=O)N[C@@H](CCCNC(=N)N)C(=O)N[C@@H](CCCNC(=N)N)C(N)=O` [Tritrp], the Kd in assay [1] was found to be 2420 nM; in assay [3] it was 11.2 µM.

B1: Tritrp (C-terminally amidated tritrpticin) (peptide)
peptide: VRRFPWWWPFLRR-NH2
notes: Tritrpticin, a cathelicidin derived from porcine neutrophils; the amidated version was used
For the molecule B1, in assay [4], the Kd turned out to be 2420 nM, the dH is -7010 cal/mol and the “stoichiometry N” value was determined as 1.14. In assay [5], the dissociation constant (Kd) was determined as 11.2 µM, the dH is -3020 cal/mol and the “stoichiometry N” value came out at 1.16.

B2: Mouse cathelicidin-related antimicrobial peptide (peptide)
peptide: GLLRKGGEKIGEKLKKIGQKIKNFFQKLVPQPEQ
notes: Cathelicidin-related antimicrobial peptide (CRAMP), the C-terminal peptide of the mouse cathelicidin precursor; also called mCRAMP
Consider B2, for which the “stoichiometry N” value in assay [6] is around 1. In assay [7], the Kd is at least 100 µM.

B3: Bovine lactoferricin (peptide)
peptide: FKCRRWQWRMKKLGAPSITCVRRAF
modifications: disulfide 3-20
notes: Lactoferricin B, the peptide derived by intestinal proteolysis of bovine lactoferrin; also called LfcinB
Consider B3, for which the dissociation constant (Kd) in assay [8] was determined as 27.2 µM; in assay [4] it was 370 nM; in assay [5] it was 27.3 µM. Further, the dH in assay [4] is -30100 cal/mol; in assay [5], -4680 cal/mol. The figures for the “stoichiometry N” value in assay [4] and in assay [5] were 0.99 and 0.98, respectively.
